# Measured values as given in US20220089758A1 (REVMAB BIOSCIENCES USA, published 2022).
# Substitutions are numbered along the chain they refer to.
# B1: Antibody clone 5-z (antibody, V domains shown)
# VH: EVQLVESGGGLVQPGGSLRLSCAASGFSLSSNAISWVRQAPGKGLEWVGIIYASGDTYYASWAKGRFTISRDNSKNTLYLQMNSLRAEDTAVYYCARGYTTLYFWGQGTLVTVSS
# VL: DIQMTQSPSSVSASVGDRVTITCQASESISTRLAWYQQKPGKAPKLLIYSASTLPSGVPSRFSGSGSGTDFTLTISSLQPEDFATYYCQGGYSSGAGTAFGGGTKVEIK
# notes: Humanized antibody based on clone 5; also called 5H2-z/5L2-z
# B2: Antibody clone 6-z (antibody, V domains shown)
# VH: EVQLVESGGGLVQPGGSLRLSCAASGFDFSRYHMSWVRQAPGKGLEWVGIIYVSDNTYYATWAKGRFTISRDNSKNTLYLQMNSLRAEDTAVYYCVRVGSFWSSKLWGQGTLVTVSS
# VL: DIQMTQSPSTLSASVGDRVTITCQASENIYSSLAWYQQKPGKAPKLLIYEASNLESGVPSRFSGSGSGTEFTLTISSLQPDDFATYYCQSTYFGNSYVFAFGGGTKVEIK
# notes: Humanized antibody based on clone 6; also called 6H2-z/6L2-z
# B3: Antibody clone 6 (antibody, V domains shown)
# VH: QSLEESGGRLVTPGTPLTLTCTASGFDFSRYHMCWVRQAPGKGLEWIGIIYVSDNTYYATWAKGRFTISRTSTTVDLKITSPTTEDTATYFCVRVGSFWSSKLWGPGTLVTVSS
# VL: DVVMTQTPASVSEPVGGTVTINCQASENIYSSLAWYQQKPGQPPKLLIYEASNLESGVSSRFSGSGSGTEFTLTISDLECADAATYYCQSTYFGNSYVFAFGGGTEVVVK
# notes: Rabbit monoclonal antibody; also called 6H2/6L2
# B4: Antibody clone 5 (antibody, V domains shown)
# VH: QSVKESGGGLFKPTDTLTLTCTVSGFSLSSNAISWVRQAPGKGLEWIGIIYASGDTYYASWAKGRFTISKTSSTTVDLKMTSLTTEGTATYFCARGYTTLYFWGPGTLVTVSS
# VL: QIVMTQTPASVSAAVGGTVTIKCQASESISTRLAWYQQKPGQPPKLLIYSASTLPSGVPSRFSGSGSGTDFTLTISGVQCDDAATYYCQGGYSSGAGTAFGGGTEVVVK
# notes: Rabbit monoclonal antibody; also called 5H2/5L2
# B5: APX005M (antibody, V domains shown)
# VH: QVQLVESGGGVVQPGRSLRLSCAASGFSFSSTYVCWVRQAPGKGLEWIACIYTGDGTNYSASWAKGRFTISKDSSKNTVYLQMNSLRAEDTAVYFCARPDITYGFAINFWGPGTLVTVSS
# VL: DIQMTQSPSSLSASVGDRVTIKCQASQSISSRLAWYQQKPGKPPKLLIYRASTLASGVPSRFSGSGSGTDFTLTISSLQPEDVATYYCQCTGYGISWPIGGGTKVEIK
# B6: Antibody clone 151 (antibody, V domains shown)
# VH: QSVEESGGRLVTPGTPLTLTCTVSGFSLSSNAISWVRQAPGKGLEWIGVIDAGGSTYFASWAKGLFTISKTSSTTVDLQMTSLTTEDTATYFCARGWSRHDFWGPGTLVTVSS
# VL: DVVMTQTPASVSEPVGGTVTIKCQASQSISNILAWYQQKPGQPPRLLIYSASTLASGVSSRFKASGSGTEFTLTISDLECADAATYYCQGYDSTVGVGAFGGGTEVVVK
# notes: Rabbit monoclonal antibody; also called 151H1/151L1
# B7: Antibody clone 166 (antibody, V domains shown)
# VH: B3 VH with F28L, C34N, N55D, T56S, T60S, R70K, T74A, V93A, F98V
# VL: B3 VL with N22K, S31N, S32N, E50R, N53T, S59P, S63K, N95G
# notes: Rabbit monoclonal antibody; also called 166H2/166L1
# B8: Antibody clone 233 (antibody, V domains shown)
# VH: QEQLVESGGGLVQPEGSLTLTCTASGFSFSYYSWACWVRQAPGKGLEWIACIDGGGSRATYYASWAKGRFTISTTSSTTVTLQMTSLTAADTATYFCSRSDYNGYISYFDLWGPGTLVTVSS
# VL: AFELTQTPSSVEAAVGGTVTINCQASQSIRSDLAWYQQKPGQPPKLLIYKASTLASGVPSRFRGSGSGTEYTLTISDLECADAATYYCQSYYHSSSTAFGGGTEVVVK
# notes: Rabbit monoclonal antibody; also called 233H1/233L1
# Molecular target: T1, CD40 protein displayed on cell surface (UniProt P25942 21-277, limits assumed)
# T1 construct: whole, on cells; One entry for cell-surface full-length CD40 in all cell assays; also called CD40 on HEKBlue CD40L reporter cells; CD40-expressing cell
# Test: binding to CD40-expressing cell; method not described
# T1 sequence (P25942 21-277 limits assumed): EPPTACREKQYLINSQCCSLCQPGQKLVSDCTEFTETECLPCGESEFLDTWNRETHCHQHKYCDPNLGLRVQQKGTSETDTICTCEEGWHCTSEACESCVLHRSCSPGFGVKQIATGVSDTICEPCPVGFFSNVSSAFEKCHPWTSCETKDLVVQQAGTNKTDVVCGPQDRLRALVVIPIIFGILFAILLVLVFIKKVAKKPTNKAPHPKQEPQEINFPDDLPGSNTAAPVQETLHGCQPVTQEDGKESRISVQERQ
row,Binder,binding result
1,B1,binds
2,B2,binds

# Molecular target: T1, CD40 protein displayed on cell surface
# Test: flow cytometry on HEKBlue CD40L reporter cells, fluorescent secondary antibody, median fluorescence
# Source text: (§1) HEKBlue CD40L reporter cells were harvested and stained with anti-CD40 and fluorescent secondary antibodies. Antibodies binding are shown in median fluorescence intensity.
row,Binder,EC50 [µg/mL]
1,B3,0.0945
2,B4,0.0541
3,B5,0.123

# Molecular target: T1, CD40 protein displayed on cell surface
# Test: flow cytometry on HEKBlue CD40L reporter cells, fluorescent secondary antibody, median fluorescence intensity
# Source text: as §1
row,Binder,EC50 [nM]
1,B3,0.63
2,B4,0.36
3,B5,0.82

# Molecular target: T1, CD40 protein displayed on cell surface
# Test: cell-based or functional assay
Binder,"EC50 in activating B cell assessed by CD80 expression (CD19+ cells, flow cytometry) [nM]","EC50 in activating B cell assessed by CD86 expression (CD19+ cells, flow cytometry) [nM]",EC50 in activating MoDC assessed by CD86 expression [nM],EC50 in activating monocyte derived dendritic cell (MoDC) assessed by CD80 expression [nM],"EC50 of CD40 activation, SEAP activity (Quanti-Blue, absorbance at 650 nm) of HEKBlue CD40L reporter cells [nM]"
B3,0.17,0.14,22,29,8
B4,0.0027,0.0015,1.3,0.74,0.34
B5,0.41,0.021,1.7,1.6,10

# Molecular target: T2, recombinant CD40 ECD-Fc fusion protein (UniProt P25942 21-193, limits assumed, biotinylated (site not stated))
# T2 construct: extracellular domain; also called biotinylated CD40 ECD-Fc; not shown: Fc
# Test: BLI (Octet), biotinylated CD40 ECD-Fc captured on streptavidin probe, antibody in solution
# Experimental: Binding affinity to recombinant CD40 ECD-Fc fusion protein were determined using Bio-Layer Interferometry (BLI) on Octet system. Briefly, biotinylated CD40 ECD-Fc were captured by streptavidin probe and the antibody association/dissociation were measured with light interferometry in realtime. KD were then calculated by Kₒₙ and Koff.
# T2 sequence (P25942 21-193 limits assumed): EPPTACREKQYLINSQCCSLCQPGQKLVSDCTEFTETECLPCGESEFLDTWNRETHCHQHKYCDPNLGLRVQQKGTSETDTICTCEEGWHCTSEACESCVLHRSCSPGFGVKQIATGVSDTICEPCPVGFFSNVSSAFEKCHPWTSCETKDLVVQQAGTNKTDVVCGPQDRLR
row,Binder,Kd [nM]
1,B6,0.084
2,B3,0.377
3,B7,0.42
4,B4,0.00604
5,B5,0.041
6,B8,0.012
